Data as given in US11898183B2, “Programmed microorganisms to attenuate a disease” (priority 2020, dated 2024).

Tested on: pathway specific substrates
Assay: Enzyme functionality of pathway enzyme homologs and fusion constructs in lysed E. coli cell extracts, product by HPLC
Type: biochemical, E. coli BL21
Details: recombinant E. coli BL21 clone, lysed cell extract
In short: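 Enzymes and fusion constructs were expressed in E. coli BL21 (pET28, T7 promoter) with 0.1 mM IPTG at 30 °C for ~20 h in M9 medium. Cleared freeze-thaw lysates were incubated with pathway-specific substrates. Products were quantified by HPLC relative to empty-plasmid lysates.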

B1: O-methyltransferase 3 (OMT) (SEQ ID NO: 30) Sinopodophyllum hexandrum (protein)
chain: MEMAPTMDLEIRNGNGYGDSGEELLAAQAHIYNHIFNFISSMALKCAVELNIPEILHNHQPKAVTLSELVQALQIPQAKSACLYRLLRILVHSGFFAITKIQSEGDEEGYLPTLSSKLLLKNHPMSMSPCLLGLVNPTMVAPMHFFSDWFKRSDDMTPFEATHGASLWKYFGETPHMAEIFNEAMGCETRLAMSVVLKECKGKLEGISSLVDVGGGTGNVGRAIAEAFPNVKCTVLDLPQVVGNLKGSNNLEFVSGDMFQFIPPADVVFLKWILHDWNDEECIKILKRCKEAIPSKEEGGKLIIIDMVVNDHNKGSYESTETQLFYDLTLMALLTGTERTETEWKKLFVAAGFTSYIISPVLGLKSIIEVFP
modifications: Depcits amino acid sequence of O-methyltransferase 3 (OMT) of Sinopodophyllum hexandrum
Enzyme activity in terms of product formation (in %) (substrate tested: Pluviatolide): 99%

B2: hydroxycinnamoyl-CoA: quinate hydroxycinnamoyltransferase p-coumaroyl quinate 3′-hydroxylase fusion (HCTC3H) (SEQ ID NO: 14) Coffea canephora (protein, listed as Coffea canephora)
chain: MKIEVKESTMVRPAQETPGRNLWNSNVDLVVPNFHTPSVYFYRPTGSSNFFDAKVLKDALSRALVPFYPMAGRLKRDEDGRIEIECNGEGVLFVEAESDGVVDDFGDFAPTLELRRLIPAVDYSQGISSYALLVLQVTYFKCGGVSLGVGMRHHAADGFSGLHFINSWSDMARGLDVTLPPFIDRTLLRARDPPQPQFQHIEYQPPPALKVSPQTAKSDSVPETAVSIFKLTREQISALKAKSKEDGNTISYSSYEMLAGHVWRCACKARGLEVDQGTKLYIATDGRARLRPSLPPGYFGNVIFTATPIAIAGDLEFKPVWYAASKIHDALARMDNDYLRSALDYLELQPDLKALVRGAHTFKCPNLGITSWVRLPIHDADFGWGRPIFMGPGGIAYEGLSFILPSPTNDGSMSVAISLQGEHMKLFQSFLYDIGGGGSGGGGSGGGGSMALLLILLPVAFIFLAYSLYERLRFKLPPGPRPKPVVGNIYDIKPVRFKCYAEWSKLYGPIFSVYFGSQLNTVVNTAELAKEVLKDNDQQLADRYRSRPSARMSRNGQDLIWADYGPHYVKVRKLCNLELFTPKRLEGLRPLREDEVTAMVDSIFKDCTKPENKGKSLLMRNYLGSVAFNNITRLTFGKRFMNSEGVVDEQGQEFKGIVSNGIRIGAKLSVADHIPWLRWMFVGENEDLDKHNARRDKLTRMIMEEHTLARQKSGNTKQHFVDALLTLQKQYELSDDTVIGLLWDMITAGMDTTTISVEWAMAELVKNPRVQQKAQEELDRVIGSDRIMTEADFAKLPYLQCVAKEALRLHPPTPLMLPHRANANVKIGGYDIPKGSIVHVNVWAIARDPAAWKNPLEFRPERFLEEDVDIKGHDYRLLPFGAGRRICPGAQLALNLVTSMLGHLLHHFTWSPPPGVRPEEIDLEESPGTVTYMRTPLQAVATPRLPAHLYNRVPVE
Enzyme activity in terms of product formation (in %) (substrate tested: Coumaroyl coA): 89%

B3: Bifunctional pinoresinol-lariciresinol reductase (DIRPLR) (SEQ ID NO: 20) Linum usitatissimum (protein, listed as Linum usitatissimum)
chain: MGRCRVLVVGGTGYIGKRIVKASIEHGHDTYVLKRPETGLDIEKFQLLLSFKKQGAHLVEASFSDHESLVRAVKLVDVVICTVSGAHSRSLLLQLKLVEAIKEAGNVKRFIPSEFGMDPARMGDALEPGRETFDLKMVVRKAIEDANIPHTYISANCFGGYFVGNLSQLGPLTPPSDKVTIYGDGNVKVVYMDEDDVATYTIMTIEDDRTLNKTMYFRPPENVITHRQLVETWEKLSGNQLQKTELSSQDFLALMEGKDVAEQIVIGHLYHIYYEGCLTNFDIDADQDQVEASSLYPEVEYTRMKDYLMIYL
Enzyme activity in terms of product formation (in %) (substrate tested: Coniferyl alcohol): 98%

B4: Secoisolariciresinol dehydrogenase (SDH) (SEQ ID NO: 22) Juglans regia (protein, listed as Juglans regia)
chain: MNGTSSLLAPIAKRLAGKVALITGGASGIGESTARLFAEQGAKVIIADVQDELGFSVSQDKSINGAISYIHCDVTSESDVQNAVNTAVSKHGKLDIMFNTAGCTGQNKASILDHEQKDYKTVFDVNVLGSFLGAKHAAKVMIPVKRGTILFTASCVTESHGLASHSYTASKHAVVGLTKNLCVELGQYGIRVNCISPYGAATPLFLKGMGIDKKEKAEEILSSAANLKGPVLEAGDLAEAALFLASEESKYVSVLNLVVDGGYSATNVAFTETIQKFFT
Enzyme activity in terms of product formation (in %) (substrate tested: Secoisolariciresinol): 99%

B5: O-methyltransferase 3 (OMT) (SEQ ID NO: 28) Papaver somniferum (protein, listed as Papaver somniferum)
chain: MEVVSKIDQENQAKIWKQIFGFAESLVLKCAVQLEIAETLHNNVKPMSLSELASKLPAQPVNEDRLYRILHFLVHMKLFNKDATTQKYSLAPPAKYLLKGWEKSMVPSILSVTDKDFTAPWNHLGDGLTGNCNAFEKALGKGIRVYMRENPEKDQLFNEGMACDTRLFASALVNECKSIFSDGINTLAGVGRGTGTAVKAISKAFPDIKCTIHDLPEVTSKNSKIPRDVFKSVPSADAIFMKSILHEWNDEECIQILKRCKEAIPKGGKVIIADVVIDMDSTHPYSKSRLAMDLAMMLHTGGKERTEEDWKKLIDAAGFASCKITKLSALQSVIEAYPH
Enzyme activity in terms of product formation (in %) (substrate tested: Pluviatolide): 88%

B6: Caffeoyl CoA O-methyltransferase (CCoAOMT) (SEQ ID NO: 16) Eleocharis dulcis (protein)
chain: MSTTTTTQTKTETQSQTGAQNGAEQQTRHSEVGHKSLLQSDALYQYILETSVYPREPECMKELRDITAKHPWNLMTTSADEGQFLNLLLKLIGAKKTMEIGVYTGYSLLATALAIPEDGTILAMDINRENYELGLPVIEKAGVAHKIDFREGPALPVLDQLIEDPANLGSFDFIFVDADKDNYLNYHKRLIELVKVGGVIGYDNTLWNGSVVLPADAPMRKYIRYYRDFVLELNKALAADPRIEISQLPVGDGITLCRRVK
modifications: Depicts the amino acid sequence of enzyme Caffeoyl CoA O-methyltransferase (CCoAOMT)
Enzyme activity in terms of product formation (in %) (substrate tested: Caffeoyl coA): 61%

B7: CYP719 (SEQ ID NO: 24) Papaver somniferum (protein, listed as Papaver somniferum)
chain: MIMSNLWILTLISTILAVFAAVLIIFRRRISASTTEWPVGPKTLPIIGNLHILGGTALHVVLHKLAEVYGSVMTIWIGSWKPVIIVSDFDRAWEVLVNKSSDYSAREMPEITKIGTANWRTISSSDSGPFWATLRKGLQSVALSPQHLASQTAHQERDIIKLIKNLKDEAASGMVKPLDHLKKATVRLISRLIYGQDFDDDKYVEDMHDVIEFLIRISGYAQLAEVFYYAKYLPGHKRAVTGAEEAKRRVIALVRPFLQSNPATNTYLHFLKSQLYPEEVIIFAIFEAYLLGVDSTSSTTAWALAFLIREPSVQEKLYQELKNFTANNNRTMLKVEDVNKLPYLQAVVKETMRMKPIAPLAIPHKACKDTSLMGKKVDKGTKVMVNIHALHHTEKVWKEPYKFIPERFLQKHDKAMEQSLLPFSAGMRICAGMELGKLQFSFSLANLVNAFKWSCVSDGVLPDMSDLLGFVLFMKTPLEARIVPRL
Enzyme activity in terms of product formation (in %) (substrate tested: Matairesinol): 76%

B8: Caffeoyl CoA O-methyltransferase (CCoAOMT) (SEQ ID NO: 18) Chamaecyparis formosensis (protein)
chain: MATVEATKDSTQQVSRHQEVGHKSLLQSDALYQYILETSVYPREPEPMRELREITAKHPWNLMTTSADEGQFLHLLLKLINAKNTMEIGVYTGYSLLSTALALPDDGKILAMDINRENYELGLPVIQKAGVAHKIDFREGPALPVLDQMLENKEMHGSFDFIFVDADKDNYLNYHKRLIDLVKIGGVIGYDNTLWNGSVVAPPDAPMRKYVRYYRDFVIELNKALAADPRIEISQIPVGDGITLCRRII
modifications: Depicts the amino acid sequence of Caffeoyl CoA O-methyltransferase (CCoAOMT) of Chamaecyparis formosensis
Enzyme activity in terms of product formation (in %) (substrate tested: Caffeoyl coA): 95%

B9: CYP719 (SEQ ID NO: 26) Cinnamomum micranthum (protein)
chain: MEAIWTAVAIGIAAAVLMAFRGRQRQRLSRKPTQWPPGPTRLPLIGNMHQILLKGGDPFHVAINKLAQVYGPLMTVWFGTRQPTIIVSDHNLVWEVLVSKSADYAAREIPITLKPSLADFRTIVSSNAGPLWHSLRRGLQNGAIGPHSLSLQAPFQESDMAQMINNMIKEANLNGGVVKPFPHIRRAIIKLLARICFGCDFSDEEFDATMDFMVEEALRYSDDSRILDTFPPARFLPSVKRAVMQMEKVKLRLMECIGRPLDSPLPPTCYAHFLLSQSFPREVAIFSIFELFLLGVDSTGSTTMWGLGLLMQNQEAQQKLYQEIREHASCNEKGVVKVEELGKLEYLQAVAKETMRMKPIAPLAVPHQAARDTTLDGLHVAEGTTVLANLYALHYDPKVWDEPERFKPERFLESSKEFLGKRGQYSFLPFGAGMRACAGMEVGKLQLPFAICNLVNAFNWSNVVEKEAPKLIEGFSFILSMKTPLEARIVPRGI
modifications: Depicts the amino acid sequence of CYP719 of Cinnamomum micranthum
Enzyme activity in terms of product formation (in %) (substrate tested: Matairesinol): 97%

B10: CYP719 Coptis japonica (protein, UniProt Q948Y1 1-491, looked up)
(S)-canadine synthase: MEMNPLLVCATVAIVFATTTIIRILFSSSSLPQMKWPSGPRKLPIIGNLHQLGDDVLHVALAKLAKVHGSVMTIWIGSWRPVIVISDIEKAWEVLVNKSADYGARDMPEITKIASASWHTISTSDAGSFWQNVRKGLQSGAMGPLNVAAQNQYQERDMKRLIKAMSDEAANNNGIVKPLDHIKKNTVRLLTRLIFGQAFDDNKFIESMHYEIEDIIRISGYARLAEAFYYAKYLPSHKKAEREAFLVKCRVEELVRPLLSSKPPTNSYLYFLLSQNFEEEVIIFCIFELYLLGVDSTSSTTTWALAYLIREQGAQEKLYQDIRMTLGDVDLVKIEDVNKLKYLQGVVKETMRMKPIAPLAIPHKTAKETTLMGTKVAKGTRIMVNLYALHHNQNIWPDPYKFMPERFLEGETGTAYNKAMEQSFLPFSAGMRICAGMDLGKLQFAFALANLVNAFKWSCVEEGKLPDMGEELSFVLLMKTPLEARIAGRNV
Enzyme activity in terms of product formation (in %) (substrate tested: Matairesinol): 0%
